Four molecules from patent publication US20220251204A1 (AstraZeneca / MedImmune, published 2022) can be followed below.

The labels stand for the following.
B2: hOX40-Fc (human recombinant protein, R&D Systems) (Fc fusion)
chain: LHCVGDTYPSNDRCCHECRPGNGMVSRCSRSQNTVCRPCGPGFYNDVVSSKPCKPCTWCNLRSGSERKQLCTATQDTVCRCRAGTQPLDSYKPGVDCAPCPPGHFSPGDNQACKPWTNCTLAGKHTLQPASNSSDAICEDRDPPATQPQETQGPPARPITVQPTEAWPRTSQGPSTRPVEVPGGRAVA
notes: also called human OX40-Fc; not shown: Fc part of the bought fusion

For assay [1], the target named is T1, human CTLA-4 antigen (soluble) (human, UniProt P16410 36-161).
T1 construct: also called hu CTLA4; soluble CTLA-4 antigen
T1 sequence: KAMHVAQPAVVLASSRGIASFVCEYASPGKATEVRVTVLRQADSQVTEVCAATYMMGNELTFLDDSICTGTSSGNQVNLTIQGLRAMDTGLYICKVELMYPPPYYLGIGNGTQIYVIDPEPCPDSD
The assay is described as follows: SPR, BIAcore T200; antibody captured on mouse anti-huIgG-Fab, antigen injected. (Surface plasmon resonance follows binding to a sensor surface in real time, without labels.)

Assay [2] has as its target T2, cynomolgus CTLA-4 (cynomolgus, UniProt G7PL88 36-161).
T2 construct: also called cyno CTLA4
T2 sequence: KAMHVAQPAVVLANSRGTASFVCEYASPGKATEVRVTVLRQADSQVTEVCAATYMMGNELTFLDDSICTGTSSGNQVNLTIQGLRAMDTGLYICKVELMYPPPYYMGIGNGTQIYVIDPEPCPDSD
The description is as above.

Assay [3] concerns the target T3, human PD-1 expressed on cells (human, UniProt Q15116 25-288).
T3 construct: also called CHO cells overexpressing human PD1
Nature of the assay: flow cytometry receptor occupancy, CHO cells expressing PD-1:CTLA-4 (10:1); free PD-1 detected with labeled anti-PD-1 mAb. (In general: Flow cytometry measures light scatter and fluorescence of single cells or particles in a stream.)

Assay [4] deals with T4, human CTLA-4 expressed on cells (human, UniProt P16410 36-223).
T4 construct: also called CTLA-4 reporter cells
T4 sequence: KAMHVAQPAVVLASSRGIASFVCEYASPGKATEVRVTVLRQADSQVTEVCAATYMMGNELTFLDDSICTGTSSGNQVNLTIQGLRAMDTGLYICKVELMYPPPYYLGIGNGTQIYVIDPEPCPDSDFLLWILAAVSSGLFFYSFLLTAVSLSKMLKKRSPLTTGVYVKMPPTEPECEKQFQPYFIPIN
Nature of the assay: flow cytometry receptor occupancy, CHO cells expressing PD-1:CTLA-4 (10:1); free CTLA-4 detected with labeled anti-CTLA-4 mAb.

The target of assay [5] is T4, human CTLA-4 expressed on cells. Nature of the assay: flow cytometry receptor occupancy, CHO cells expressing PD-1:CTLA-4 (40:1); free CTLA-4 detected with labeled anti-CTLA-4 mAb.
The target is the same in assay [6]. Nature of the assay: flow cytometry receptor occupancy, CHO cells expressing PD-1:CTLA-4 (40:1), combination of the anti-PD-1 and anti-CTLA-4 mAbs; free CTLA-4 detected with labeled anti-CTLA-4 mAb; label stands beside the dark-diamond curve, which crosses 50 % at about 2.5 nM.
The target of assay [7] is T5, His-tagged PD-L1-Fc (human recombinant protein, R&D Systems) (human, UniProt Q9NZQ7 19-238).
T5 construct: also called PD-L1-His
T5 sequence (Q9NZQ7 19-238 limits assumed): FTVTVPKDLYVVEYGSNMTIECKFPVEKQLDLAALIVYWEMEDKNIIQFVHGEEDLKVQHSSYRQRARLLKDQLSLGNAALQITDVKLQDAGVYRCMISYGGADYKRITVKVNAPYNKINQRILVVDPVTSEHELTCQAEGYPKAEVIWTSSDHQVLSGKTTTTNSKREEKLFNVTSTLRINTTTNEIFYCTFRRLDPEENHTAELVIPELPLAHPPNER
The assay is described as follows: Octet: PDL1-HiS-Fc loaded anti-HiS sensor, 5ug/mL rhOx40-Fc association. For orientation: Biolayer interferometry detects binding as a change in optical thickness at a sensor tip.

The target of assay [8] is T6, human TIM3 expressed on CHO cells (human, UniProt Q8TDQ0 22-301).
T6 construct: also called CHO cells overexpressing human TIM3
T6 sequence: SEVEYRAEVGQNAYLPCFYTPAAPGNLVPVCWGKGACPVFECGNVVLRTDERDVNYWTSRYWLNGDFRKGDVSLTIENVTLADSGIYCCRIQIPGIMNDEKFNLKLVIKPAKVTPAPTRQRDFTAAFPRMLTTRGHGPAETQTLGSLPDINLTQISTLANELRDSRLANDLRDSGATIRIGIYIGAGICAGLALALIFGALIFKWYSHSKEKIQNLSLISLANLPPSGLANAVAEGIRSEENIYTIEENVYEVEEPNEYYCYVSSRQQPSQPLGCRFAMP
The assay is described as follows: flow cytometry, Human TIM3 CHO cells, x axis hIgG1TM (nM).

The target in assay [9] is T3, human PD-1 expressed on cells. Nature of the assay: flow cytometry, HumanPD1 CHO cells, x axis hIgG1TM mAb (nM).
The target in assay [10] is T7, human TIM3 (soluble) (human, UniProt Q8TDQ0 22-202).
T7 construct: also called Biotinylated human TIM3
T7 sequence: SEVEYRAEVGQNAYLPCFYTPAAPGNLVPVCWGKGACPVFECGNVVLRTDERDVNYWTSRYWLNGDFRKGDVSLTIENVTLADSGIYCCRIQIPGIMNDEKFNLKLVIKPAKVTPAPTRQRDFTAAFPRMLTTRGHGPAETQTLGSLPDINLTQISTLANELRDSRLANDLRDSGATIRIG
Nature of the assay: SPR, BIAcore T200; antibody captured on mouse anti-huIgG-Fab, antigen injected.

Assay [11] has as its target T8, cynomolgus TIM3 (cynomolgus, UniProt A0A2K5U3G7 22-195).
T8 construct: also called Cyno TIM3
T8 sequence: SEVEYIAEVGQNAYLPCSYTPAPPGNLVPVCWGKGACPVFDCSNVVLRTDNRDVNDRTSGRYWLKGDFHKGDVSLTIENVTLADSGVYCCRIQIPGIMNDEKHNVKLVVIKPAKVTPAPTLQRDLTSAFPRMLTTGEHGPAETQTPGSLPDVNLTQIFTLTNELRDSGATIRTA
Described as above.

Assay [12] addresses T9, CD32a expressed on HEK cells (UniProt P12318 34-317).
T9 construct: whole, on cells; also called HEK CD32a cells
T9 sequence (looked up): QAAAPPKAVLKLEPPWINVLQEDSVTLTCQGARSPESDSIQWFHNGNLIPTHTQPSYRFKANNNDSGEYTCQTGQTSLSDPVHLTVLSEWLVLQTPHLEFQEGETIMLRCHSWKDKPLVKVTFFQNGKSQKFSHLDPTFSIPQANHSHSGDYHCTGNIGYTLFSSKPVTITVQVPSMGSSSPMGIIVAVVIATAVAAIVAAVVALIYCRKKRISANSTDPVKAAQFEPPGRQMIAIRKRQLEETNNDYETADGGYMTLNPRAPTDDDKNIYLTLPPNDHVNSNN
Nature of the assay: flow cytometry (HyperCyt, FL4-H median) on HEK CD32a cells, concentration not given.

Assay [13] addresses B2. The assay is described as follows: Octet: antibody held on PDL1-HiS-Fc loaded anti-HiS sensor, then 5ug/mL rhOx40-Fc association.
The target in assay [14] is T10, human OX40 expressed on cells (human, UniProt P43489 29-277).
T10 construct: also called CHO cells expressing human OX40; Jurkat OX40 reporter cells
T10 sequence: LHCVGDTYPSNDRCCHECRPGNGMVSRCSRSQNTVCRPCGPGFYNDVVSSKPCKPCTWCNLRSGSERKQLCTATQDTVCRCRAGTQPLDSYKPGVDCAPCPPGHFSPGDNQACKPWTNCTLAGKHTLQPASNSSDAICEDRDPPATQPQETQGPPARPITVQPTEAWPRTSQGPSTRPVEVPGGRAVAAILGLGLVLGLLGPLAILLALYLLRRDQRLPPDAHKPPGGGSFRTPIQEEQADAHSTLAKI
The assay is described as follows: flow cytometry (HyperCyt, FL4-H median) on Jurkat OX40 cells, one condition, concentration not given.

T3 sequence (Q15116 25-288 limits assumed): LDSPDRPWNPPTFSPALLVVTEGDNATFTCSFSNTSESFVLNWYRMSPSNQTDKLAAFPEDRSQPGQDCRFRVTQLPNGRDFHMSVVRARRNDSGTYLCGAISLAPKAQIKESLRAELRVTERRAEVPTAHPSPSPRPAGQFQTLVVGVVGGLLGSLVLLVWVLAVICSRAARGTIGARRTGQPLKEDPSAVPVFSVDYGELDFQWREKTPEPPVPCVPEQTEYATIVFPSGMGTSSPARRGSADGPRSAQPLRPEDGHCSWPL

B1: Anti-CTLA-4 IgG (antibody, V domains shown)
VH: QVQLVESGGGVVQPGRSLRLSCAASGFTFSSYGMHWVRQAPGKGLEWVAVIWYDGSNKYYADSVKGRFTISRDNSKNTLYLQMNSLRAEDTAVYYCARDPRGATLYYYYYGMDVWGQGTTVTVSS
VL: DIQMTQSPSSLSASVGDRVTITCRASQSINSYLDWYQQKPGKAPKLLIYAASSLQSGVPSRFSGSGSGTDFTLTISSLQPEDFATYYCQQYYSTPFTFGPGTKVEIK
notes: also called tremelimumab; MEDI1123
With B1, the Kd in assay [1] amounted to 0.48 nM; in [2], 0.59 nM. Also, the results for the koff in [1] and in assay [2] were 0.000304 s⁻¹ and 0.000674 s⁻¹, respectively. In addition, the values for the kon in [1] and in assay [2] were 633000 M⁻¹ s⁻¹ and 1.15e+06 M⁻¹ s⁻¹, respectively. In addition, in [3], the binding result is recorded as “no binding (tested: about 200 nM)”. The IC50 was 5 nM in assay [4], 4.4 nM in assay [5] and 2.4 nM in assay [6].
With B2, in assay [7], the binding result is recorded as “no binding (tested: 5ug/mL)”.

B3: O13-1 IgG1-TM (antibody, V domains shown)
VH: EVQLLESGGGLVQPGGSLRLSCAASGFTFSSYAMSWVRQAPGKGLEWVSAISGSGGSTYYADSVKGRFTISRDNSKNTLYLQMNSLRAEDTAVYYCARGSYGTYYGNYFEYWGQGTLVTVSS
VL: SYVLTQPPSVSVAPGKTARITCGGDNIGGKSVHWYQQKPGQAPVLVIYYDSDRPSGIPERFSGSNSGNTATLTISRVEAGDEADYYCQVLDRRSDHFLFGGGTKLTVLG
notes: also called anti-TIM3 LOO131
For B3, in assay [8], the “EC50 (read off the curve)” value is around 0.03 nM. The binding result in assay [9] is “no binding (tested: about 100 nM)”. In [10], this molecule came in with a Kd of 4.01 nM, a koff of 0.00752 s⁻¹ and a kon of 1.88e+06 M⁻¹ s⁻¹. Further, in [11], the Kd turned out to be 25.7 nM, the dissociation rate constant (koff) was determined as 0.0718 s⁻¹ and the on-rate constant (kon) was 2.79e+06 M⁻¹ s⁻¹.

B4: OX40(SLR)/PD-L1 BiS5 (bispecific antibody, human IgG1, kappa)
heavy: QVQLQESGPGLVKPSQTLSLTCAVYGGSFSSGYWNWIRKHPGKGLEYIGYISYNAITYHNPSLKSRITINRDTSKNQYSLQLNSVTPEDTAVYYCARYKYDYEGGHAMDYWGQGTLVTVSSASTKGPSVFPLAPSSKSTSGGTAALGCLVKDYFPEPVTVSWNSGALTSGVHTFPAVLQSSGLYSLSSVVTVPSSSLGTQTYICNVNHKPSNTKVDKRVEPKSCDKTHTCPPCPAPELLGGPSVFLFPPKPKDTLMISRTPEVTCVVVDVSHEDPEVKFNWYVDGVEVHNAKTKPREEQYNSTYRVVSVLTVLHQDWLNGKEYKCKVSNKALPAPIEKTISKAKGQPREPQVYTLPPSREEMTKNQVSLTCLVKGFYPSDIAVEWESNGGGGSGGGGSEVQLVESGGGLVQPGGSLRLSCAASGFTFSRYWMSWVRQAPGKCLEWVANIKQDGSEKYYVDSVKGRFTISRDNAKNSLYLQMNSLRAEDTAVYYCAREGGWFGELAFDYWGQGTLVTVSSGGGGSGGGGSGGGGSGGGGSEIVLTQSPGTLSLSPGERATLSCRASQRVSSSYLAWYQQKPGQAPRLLIYDASSRATGIPDRFSGSGSGTDFTLTISRLEPEDFAVYYCQQYGSLPWTFGCGTKVEIKGGGGSGGGGSGQPENNYKTTPPVLDSDGSFFLYSKLTVDKSRWQQGNVFSCSVMHEALHAHYTQKSLSLSPGK
light: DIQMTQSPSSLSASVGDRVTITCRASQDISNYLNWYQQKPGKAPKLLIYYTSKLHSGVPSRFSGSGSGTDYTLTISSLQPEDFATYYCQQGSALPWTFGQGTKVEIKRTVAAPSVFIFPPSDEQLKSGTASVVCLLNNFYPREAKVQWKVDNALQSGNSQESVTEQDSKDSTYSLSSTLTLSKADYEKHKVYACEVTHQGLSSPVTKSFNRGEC
notes: also called BiS5 OX40Ab/PD-L1; PD-L1/OX40 BiS5
For B4, the binding result in assay [12], in assay [13] and in assay [14] was “binds” each time.

The Kd is the equilibrium constant for the complex coming apart. Low values mean higher affinity, high ones lower affinity. The term koff denotes the first-order rate constant of dissociation. What is called kon is a measure of how fast the partners come together. A higher kon goes with faster complex formation. Usually IC50 stands for the concentration at which inhibition is half-maximal. Broadly, the EC50 (read off the curve) is the midpoint of the concentration-response curve. The low end stands for higher potency in that assay, the high end for lower potency in that assay.
